In US20110312897A1 (published 2011):
Where no end group is shown, it is not given here.

Assays:
[1] = target: T1, non-cleaved H3 tail peptide (H3 18-37), methylated at K27 (not fully specified; methylated K27 (degree of methylation shown only in FIG. 7C); biotinylated for the pull-down); test: fluorescence anisotropy
T1 peptide: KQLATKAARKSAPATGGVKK

[2] = target: T2, cleaved H3 tail peptide (H3 22-37), methylated at K27 (not fully specified; also: K27 methylated, degree not given here, biotinylated, site not given here); test: fluorescence anisotropy
T2 peptide: TKAARK(Me)SAPATGGVKK

B1: chromodomain of mouse CBX7 (other)
chain: MELSAIGEQVFAVESIRKKRVRKGKVEYLVKWKGWPPKYSTWEPEEHILDPRLVMAYEEKEERDRASGYR
Kd [1]: 14.5 µM | Kd [2]: 44 µM
